Bridge positions count the residues as written; N and C are the ends. * marks the point of attachment. Biotin = O=C1N[C@H]2[C@H](CS[C@H]2CCCCC(=O)*)N1
Experiments:
wild-type CHO-K1 cells = assay: MTT cell viability after toxin delivery, wild-type CHO-K1; details: 48 hours
Description: (§2) In order to determine whether a RAP peptide conjugated to a cytotoxic agent could effectively deliver the toxin to the cell and initiate cell death, an in vitro assay was used to assess delivery of toxin via the RAP-LRP1 binding and internalization pathway.
(§3) Wild-type and LRP1-deficient CHO-K1 cells were grown in BioWhittaker Ultra-CHO supplemented with 5% fetal bovine serum. Cells were seeded in 12-well plates 48 hours prior to the experiment. […] The mixture was diluted into growth media to 100 nM and added to wells in duplicate. […] Cells were incubated for 48 hours at 37° C., 5% CO2 in a humidified chamber. Cell viability for each treatment condition was determined with an MTT assay kit (Invitrogen, San Diego).

[1] = system: LRP1-deficient CHO-K1 cells; assay: MTT cell viability after toxin delivery, LRP1-deficient CHO-K1; details: LRP-deficient CHO-K1, 1 μM, 48 hours
Description: as §2, §3

[2] = molecular target: T1, recombinant human LRP1 cluster II (Homo sapiens, UniProt Q07954); assay: Solid phase binding assay, affinity for LRP1 cluster II
T1 construct: R&D Systems, amino acids 786-1165, with C-terminal Fc tag; purchased R&D Systems
T1 sequence (Q07954 805-1184): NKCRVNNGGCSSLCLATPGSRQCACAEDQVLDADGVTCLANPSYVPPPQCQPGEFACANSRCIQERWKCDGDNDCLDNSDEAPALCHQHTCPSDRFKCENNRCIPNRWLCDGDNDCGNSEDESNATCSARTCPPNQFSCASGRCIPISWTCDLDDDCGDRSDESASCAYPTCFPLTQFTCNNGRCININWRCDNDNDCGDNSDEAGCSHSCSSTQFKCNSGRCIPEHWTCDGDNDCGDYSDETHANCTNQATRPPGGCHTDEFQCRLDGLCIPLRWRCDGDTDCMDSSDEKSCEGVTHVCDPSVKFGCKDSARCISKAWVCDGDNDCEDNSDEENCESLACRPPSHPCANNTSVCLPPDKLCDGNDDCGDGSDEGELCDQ
Excerpt: (§1) Control wells contained no added inhibitor. […] Excess HRP conjugate was removed and wells washed. Color was developed using TMB reagents (BioRad, Hercules, Calif.).

[3] = in vivo
[4] = in vivo, iv; cited from earlier work
LRP1-C2 [5] = molecular target: T2, LRP1-C2 (Homo sapiens, UniProt Q07954); assay: Inhibition of RAP d3 binding to LRP1-C2, solid phase assay (streptavidin multimerization); parameters: R&D Systems, amino acids 786-1165, with C-terminal Fc tag; purchased R&D Systems
T2 sequence (Q07954 805-1184): T1 sequence (Q07954 805-1184)
Excerpt: as §1

[6] = rat, in vivo, iv; cited from earlier work
[7] = in vivo, iv; cited from earlier work; remark: listed apart in the source
LRP1-C2 [8] = molecular target: T2, LRP1-C2; assay: Inhibition of RAP d3 binding to LRP1-C2, solid phase assay (anti-biotin antibody, preincubation with receptor); details: fit parameter of inhibition curve, 2 nM RAP d3
Description: Briefly, recombinant human LRP1 cluster II (R&D Systems, amino acids 786-1165, with C-terminal Fc tag, 1 μg) was used to coat Nunc MAXISORP™ 96-well plates in TBS pH 8 supplemented with 5 mM CaCl2 (TBSC) overnight at 4° C. Wells were washed with TBSC and blocked with TBSC containing 2% BSA.
Since the ligand binding competence of CR pairs requires calcium, identical binding reactions were done in the presence of 50 mM EDTA to provide a measure of non-specific binding. Control wells contained no added inhibitor. Wells were washed with TBS supplemented with 5 mM CaCl2 and 0.05% Tween-20. Bound ligand was detected with either anti-5-peptide-HRP conjugate (Abcam) or anti-α-2-macroglobulin-HRP conjugate (Abcam). Excess HRP conjugate was removed and wells washed. Color was developed using TMB reagents (BioRad, Hercules, Calif.). Absorption at 450 nm was measured with a microplate spectrophotometer (Molecular Devices, Palo Alto).
The same procedure was performed for the controls; peptide alone, antibody alone and full-length RAP.

hepatocellular carcinoma = details: systemic chemotherapy, HCC patients; cited from earlier work

## Saporin [reference compound]
wild-type CHO-K1 cells; wild-type CHO-K1, 1 μM
  loss of viable cells: about 55%
[1]
  loss of viable cells: ~35%

## Biotin-GGSGGCGKHFEAKIEKHNHYQKQLEIAHEKLRHAESVGDGERVSRSREKHALLEGRTKELGYTVKKHLQDGC (disulfide 6-72 (inferred)) [mRAP-8c]
[2]
  Kd: ~4 nM

## Biotin-GGSGGCEAKIEKHNHYQKQLEIAHEKLRHAESVGDGERVSRSREKHALLEGRTKELGYTVKKHGC (disulfide 6-65 (inferred)) [mRAP-14c]
[2]
  Kd: ~21 nM

## biotin-GGSGGCGFREELKHFEAKIEKHNHYQKQLEIAHEKLRHAESVGDGERVSRS REKHALLEGRTKELGYTVKKHLQDLSGGC [mini-RAPc]
wild-type CHO-K1 cells; 100 nM, cell type not specified (wild-type and LRP1-deficient CHO-K1 tested)
  effect on cell survival: no significant effect on cell survival

## streptavidin: streptavidin alone, control (35S-labeled in bio-distribution studies) [reference compound]
[3]
  uptake in the woodchuck liver, mean: 435 PSL/mm^2
[4]
  tissue accumulation: accumulate in kidney, but not significantly in liver
LRP1-C2 [5]; in words
  inhibitory effect on RAP d3 binding: no inhibitory effect

## RAP: mature full-length receptor-associated protein, 323 amino acids (SEQ ID NO: 1); Tables 3 and 4, b198
[6]
  accumulation in heart, brain, muscle or kidney: < 1 % of injected dose
  circulating half-life: less than a minute
[7]
  toxicity: no measurable toxicity
LRP1-C2 [5]
  fold better EC50 than peptide assembled on streptavidin: about 10 fold
LRP1-C2 [5]; fit parameter of inhibition curve, 2 nM RAP d3
  Maximum binding: 0.29
LRP1-C2 [8]
  Maximum binding: 0.74

## COc1cccc2c1C(=O)c1c(O)c3c(c(O)c1C2=O)C[C@@](O)(C(=O)CO)C[C@@H]3O[C@H]1C[C@H](N)[C@H](O)[C@H](C)O1 [adriamycin]
Hepatocellular carcinoma
  response rates: 15-20%
